B1: FVIIa-AE288 (protein)
chain 1: ANAFLEELRPGSLERECKEEQCSFEEAREIFKDAERTKLFWISYSDGDQCASSPCQNGGSCKDQLQSYICFCLPAFEGRNCETHKDDQLICVNENGGCEQYCSDHTGTKRSCRCHEGYSLLADGVSCTPTVEYPCGKIPILEKRNASKPQGR
chain 2: IVGGKVCPKGECPWQVLLLVNGAQLCGGTLINTIWVVSAAHCFDKIKNWRNLIAVLGEHDLSEHDGDEQSRRVAQVIIPSTYVPGTTNHDIALLRLHQPVVLTDHVVPLCLPERTFSERTLAFVRFSLVSGWGQLLDRGATALELMVLNVPRLMTQDCLQQSRKVGDSPNITEYMFCAGYSDGSKDSCKGDSGGPHATHYRGTWYLTGIVSWGQGCATVGHFGVYTRVSQYIEWLQKLMRSEPRPGVLLRAPFPGSPGTSESATPESGPGSEPATSGSETPGTSESATPESGPGSEPATSGSETPGTSESATPESGPGTSTEPSEGSAPGSPAGSPTSTEEGTSESATPESGPGSEPATSGSETPGTSESATPESGPGSPAGSPTSTEEGSPAGSPTSTEEGTSTEPSEGSAPGTSESATPESGPGTSESATPESGPGTSESATPESGPGSEPATSGSETPGSEPATSGSETPGSPAGSPTSTEEGTSTEPSEGSAPGTSTEPSEGSAPGSEPATSGSETPGTSESATPESGPGTSTEPSEGSAPGSSS

Tests used:
[1] = system: FIX/cFXI1/XTEN (pCW0735)
[2] = system: FIX/cFXI2/XTEN (pCW0736)
[3] = system: FIX/cFXI3/XTEN (pCW0737)
[4] = biological target: T1, soluble tissue factor, P13726
T1 chain: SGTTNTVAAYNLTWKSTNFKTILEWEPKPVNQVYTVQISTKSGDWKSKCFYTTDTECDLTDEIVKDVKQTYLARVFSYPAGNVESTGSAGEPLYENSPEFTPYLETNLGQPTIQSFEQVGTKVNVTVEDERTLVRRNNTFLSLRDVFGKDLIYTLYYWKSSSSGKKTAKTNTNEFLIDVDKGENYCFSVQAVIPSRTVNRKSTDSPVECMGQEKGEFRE

| Molecule | Concentration by Activity (ng/ml), aPTT based factor assay [1] | Fraction Active (activity / ELISA) [1] | clotting activity against FIX-XTEN without cleavage site (aPTT based factor assay) [1] | Concentration by Activity (ng/ml), aPTT based factor assay [2] | Fraction Active (activity / ELISA) [2] | clotting activity against FIX-XTEN without cleavage site (aPTT based factor assay) [2] | Concentration by Activity (ng/ml), aPTT based factor assay [3] | Fraction Active (activity / ELISA) [3] | clotting activity against FIX-XTEN without cleavage site (aPTT based factor assay) [3] | soluble tissue factor (sTF) induced clotting (Stago STA-Clot FVIIa activity assay) [4] |
| --- | --- | --- | --- | --- | --- | --- | --- | --- | --- | --- |
| FXI protease | 7 ng/mL | 30% | enhanced the clotting activity by greater than 30-fold | 9 ng/mL | 34% | enhanced the clotting activity by greater than 30-fold | 11 ng/mL | 40% | enhanced the clotting activity by greater than 30-fold | – |
| B1 | – | – | – | – | – | – | – | – | – | an activity equivalent to 112 U/ml of FVIIa activity |

From patent US20120263701
